{"source": "patent US20210238260", "proteins": {"B1": {"name": "FIXa-K293A/R338A/R403A (protein)", "chain 1": "YNSGKLEEFVQGNLERECMEEKCSFEEAREVFENTERTTEFWKQYVDGDQCESNPCLNGGSCKDDINSYECWCPFGFEGKNCELDVTCNIKNGRCEQFCKNSADNKVVCSCTEGYRLAENQKSCEPAVPFPCGRVSVSQTSKLTR", "chain 2": "VVGGEDAKPGQFPWQVVLNGKVDAFCGGSIVNEKWIVTAAHCVETGVKITVVAGEHNIEETEHTEQKRNVIRIIPHHNYNAAINKYNHDIALLELDEPLVLNSYVTPICIADAEYTNIFLKFGSGYVSGWGRVFHKGRSALVLQYLRVPLVDRATCLASTKFTIYNNMFCAGFHEGGRDSCQGDSGGPHVTEVEGTSFLTGIISWGEECAMKGKYGIYTKVSAYVNWIKEKTKLT"}, "B2": {"name": "FIXa A103N/N105S/R318Y/R338E/R403E/E410N (protein)", "chain 1": "B1 chain 1 with A103N, N105S", "chain 2": "B1 chain 2 with A113K, R138Y, A158E, A223E, E230N"}, "B3": {"name": "FIXa variant D104N/K106S/Y155F/K247N/N249S/N260S (mature FIX numbering) (protein)", "chain 1": "B1 chain 1 with D104N, K106S", "chain 2": "B1 chain 2 with K67N, N69S, N80S, A113K, A158R, A223R"}, "B4": {"name": "FIXa variant D104N/K106S/K247N/N249S/N260S (mature FIX numbering) (protein)", "chain 1": "B1 chain 1 with D104N, K106S", "chain 2": "B1 chain 2 with K67N, N69S, N80S, A113K, A158R, A223R"}, "B5": {"name": "FIXa-Y155F/K247N/N249S/N260S (protein)", "chain 1": "B1 chain 1", "chain 2": "B1 chain 2 with K67N, N69S, N80S, A113K, A158R, A223R"}, "B6": {"name": "FIXa variant R318Y/R338E/Y345A/N346D/R403E/E410N (mature FIX numbering) (protein)", "chain 1": "B1 chain 1", "chain 2": "B1 chain 2 with A113K, R138Y, A158E, Y165A, N166D, A223E, E230N"}, "B7": {"name": "FIXa D104N/K106S/Y155F/R318Y/R338E/R403E/E410N (protein)", "chain 1": "B1 chain 1 with D104N, K106S", "chain 2": "B1 chain 2 with A113K, R138Y, A158E, A223E, E230N"}, "B8": {"name": "FIXa D203N/F205T/R318Y/E410N (protein)", "chain 1": "B1 chain 1", "chain 2": "B1 chain 2 with D23N, F25T, A113K, R138Y, A158R, A223R, E230N"}, "B9": {"name": "FIXa D104N/K106S/R318Y/R338E/R403E/E410N (protein)", "chain 1": "B1 chain 1 with D104N, K106S", "chain 2": "B1 chain 2 with A113K, R138Y, A158E, A223E, E230N"}, "B10": {"name": "FIXa variant Y155F/K247N/N249S/N260S (mature FIX numbering) (protein)", "chain 1": "B1 chain 1", "chain 2": "B1 chain 2 with K67N, N69S, N80S, A113K, A158R, A223R"}, "B11": {"name": "FIXa A103N/N105S/Y155F/R318Y/R338E/R403E/E410N (protein)", "chain 1": "B1 chain 1 with A103N, N105S", "chain 2": "B1 chain 2 with A113K, R138Y, A158E, A223E, E230N"}, "B12": {"name": "FIXa-D203N/F205T/R318Y/E410N (protein)", "chain 1": "B1 chain 1", "chain 2": "B1 chain 2 with D23N, F25T, A113K, R138Y, A158R, A223R, E230N"}, "B13": {"name": "FIXa variant R318Y/R338E/T343R/N346D/R403E/E410N (mature FIX numbering) (protein)", "chain 1": "B1 chain 1", "chain 2": "B1 chain 2 with A113K, R138Y, A158E, T163R, N166D, A223E, E230N"}, "B14": {"name": "FIXa-K247N/N249S/N260S (protein)", "chain 1": "B1 chain 1", "chain 2": "B1 chain 2 with K67N, N69S, N80S, A113K, A158R, A223R"}}, "key": {"[1]": {"target": "T1, Antithrombin III (plasma purified human AT-III, Molecular Innovations)", "assay": "same assay; ratio of the lower-limit K0.5 to recombinant wild-type FIXa (Catalyst Biosciences WT)"}, "[2]": {"target": "T1, Antithrombin III (plasma purified human …)", "assay": "AT-III/UFH inhibition, standard assay (35 nM-0 nM AT-III); 999 nM is the assigned lower limit for less than 10% inhibition"}, "[3]": {"target": "antithrombin III (plasma purified human AT-III), used as the AT-III/unfractionated heparin complex", "assay": "K0.5 ratio to Catalyst Biosciences WT FIXa, AT-III/UFH inhibition assay (from lower-limit K0.5)"}, "[4]": {"target": "Factor X (FX), P00742", "sequence (P00742 whole entry, looked up)": "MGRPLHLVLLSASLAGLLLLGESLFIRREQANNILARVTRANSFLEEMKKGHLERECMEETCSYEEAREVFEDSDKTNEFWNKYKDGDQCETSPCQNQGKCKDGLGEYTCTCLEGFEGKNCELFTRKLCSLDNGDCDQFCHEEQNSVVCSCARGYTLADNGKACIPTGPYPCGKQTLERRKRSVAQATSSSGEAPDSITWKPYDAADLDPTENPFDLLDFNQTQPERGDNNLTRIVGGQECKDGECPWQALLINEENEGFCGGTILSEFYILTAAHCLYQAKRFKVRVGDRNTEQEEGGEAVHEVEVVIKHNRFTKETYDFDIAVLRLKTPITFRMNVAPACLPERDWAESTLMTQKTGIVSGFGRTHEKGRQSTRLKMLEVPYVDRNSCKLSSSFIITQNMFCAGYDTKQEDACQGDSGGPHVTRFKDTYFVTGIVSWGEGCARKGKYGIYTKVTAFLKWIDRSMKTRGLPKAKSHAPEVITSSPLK"}, "[5]": {"target": "plasma purified human AT-III (Molecular Innovations), in complex with low molecular weight heparin"}, "[6]": {"target": "Factor X, P00742", "sequence (P00742 whole entry, looked up)": "as above"}, "[7]": {"target": "T2, plasma purified human antithrombin III (AT-III), in complex with unfractionated heparin", "assay": "K0.5 of variant over K0.5 of Catalyst Biosciences WT FIXa; AT-III/UFH inhibition assay"}, "[8]": {"target": "T3, plasma purified human AT-III (antithrombin III), in complex with full-length unfractionated heparin (UFH)", "assay": "ratio of K0.5 of the variant to K0.5 of Catalyst Biosciences WT FIXa, AT-III/UFH inhibition"}, "[9]": {"target": "plasma purified human antithrombin III (AT-III), in complex with unfractionated heparin (UFH)", "assay": "ratio of K0.5 for AT-III/UFH inhibition, variant over Catalyst Biosciences WT FIXa"}, "[10]": {"target": "T3, plasma purified human AT-III …", "assay": "ratio of K0.5 (lower-limit value) of the variant to K0.5 of Catalyst Biosciences WT FIXa, AT-III/UFH inhibition"}, "[11]": {"target": "T2, plasma purified human antithrombin III …", "assay": "K0.5 of variant over K0.5 of Catalyst Biosciences WT FIXa; AT-III/UFH inhibition assay; from lower limit K0.5"}, "[12]": {"target": "plasma purified human AT-III (antithrombin III)", "assay": "same assay; ratio to K0.5 of Catalyst Biosciences WT FIXa"}}, "note": "Substitutions are numbered along the chain they refer to. Numbers in names are those of the source.", "data": [{"protein": "B1", "values": [{"measurement": "K0.5-mut/K0.5-wt", "setting": "[1]", "result": "> 51.7"}, {"measurement": "K0.5", "setting": "[2]", "result": "> 999", "unit": "nM"}, {"measurement": "K0.5-mut/K0.5-wt", "setting": "[3]", "result": "> 51.7", "unit": "fold"}, {"measurement": "% of WT kcat/KM", "setting": "[4]", "result": 55, "unit": "%"}, {"measurement": "kcat", "setting": "[4]", "result": 1.6, "unit": "s⁻¹"}, {"measurement": "kcat/KM", "setting": "[4]", "result": "2.5e+07", "unit": "M⁻¹ s⁻¹"}, {"measurement": "K0.5", "setting": "[5]", "result": 497, "unit": "nM"}, {"measurement": "K0.5-mut/K0.5-wt", "setting": "[5]", "result": 16.9, "unit": "fold"}, {"measurement": "KM", "setting": "[6]", "result": 0.0654, "unit": "µM"}]}, {"protein": "B2", "values": [{"measurement": "KM", "setting": "[4]", "result": 0.0447, "unit": "µM"}, {"measurement": "K0.5-mut/K0.5-wt", "setting": "[7]", "result": 475}]}, {"protein": "B3", "values": [{"measurement": "K0.5-mut/K0.5-wt", "setting": "[8]", "result": 35.8}]}, {"protein": "B4", "values": [{"measurement": "K0.5-mut/K0.5-wt", "setting": "[8]", "result": 65.3}]}, {"protein": "B5", "values": [{"measurement": "K0.5-mut/K0.5-wt", "setting": "[9]", "result": 7.9, "unit": "fold"}, {"measurement": "KM", "setting": "[4]", "result": 0.0965, "unit": "µM"}, {"measurement": "kcat of FX activation by FIXa (Xase complex with FVIIIa, PC/PS vesicles, Ca2+)", "setting": "[4]", "result": 1.8, "unit": "s⁻¹"}, {"measurement": "% of WT kcat/KM", "setting": "[6]", "result": 43, "unit": "%"}, {"measurement": "kcat", "setting": "[6]", "result": 1.8, "unit": "s⁻¹"}, {"measurement": "kcat/KM", "setting": "[6]", "result": "1.9e+07", "unit": "M⁻¹ s⁻¹"}]}, {"protein": "B6", "values": [{"measurement": "K0.5-mut/K0.5-wt", "setting": "[10]", "result": 517}]}, {"protein": "B7", "values": [{"measurement": "K0.5-mut/K0.5-wt", "setting": "[11]", "result": "> 517"}, {"measurement": "KM", "setting": "[4]", "result": 0.048, "unit": "µM"}]}, {"protein": "B8", "values": [{"measurement": "KM", "setting": "[4]", "result": 0.0457, "unit": "µM"}, {"measurement": "K0.5-mut/K0.5-wt", "setting": "[7]", "result": 66.2}]}, {"protein": "B9", "values": [{"measurement": "K0.5-mut/K0.5-wt", "setting": "[11]", "result": "> 517"}, {"measurement": "KM", "setting": "[4]", "result": 0.0385, "unit": "µM"}]}, {"protein": "B10", "values": [{"measurement": "K0.5-mut/K0.5-wt", "setting": "[8]", "result": 7.9}]}, {"protein": "B11", "values": [{"measurement": "K0.5-mut/K0.5-wt", "setting": "[11]", "result": "> 517"}, {"measurement": "KM", "setting": "[4]", "result": 0.0507, "unit": "µM"}]}, {"protein": "B12", "values": [{"measurement": "K0.5-mut/K0.5-wt", "setting": "[12]", "result": 66.2}, {"measurement": "kcat", "setting": "[4]", "result": 1.6, "unit": "s⁻¹"}, {"measurement": "KM", "setting": "[6]", "result": 0.0457, "unit": "µM"}]}, {"protein": "B13", "values": [{"measurement": "K0.5-mut/K0.5-wt", "setting": "[10]", "result": 517}]}, {"protein": "B14", "values": [{"measurement": "K0.5-mut/K0.5-wt", "setting": "[9]", "result": 8.1, "unit": "fold"}, {"measurement": "KM", "setting": "[4]", "result": 0.114, "unit": "µM"}, {"measurement": "kcat of FX activation by FIXa (Xase complex with FVIIIa, PC/PS vesicles, Ca2+)", "setting": "[4]", "result": 3.3, "unit": "s⁻¹"}]}]}
